Results taken from article PMC10266979.

Tests used:
[1] = target: neuraminidase of influenza B virus B/Brisbane/60/2008 (Victoria) (influenza B virus B/Brisbane/60/2008 (Victoria))
[2] = target: neuraminidase of influenza B virus B/Phuket/3073/2013 (Yamagata) (influenza B virus B/Phuket/3073/2013 (Yamagata))
[3] = target: neuraminidase (N1) of influenza A virus A/Hawaii/66/2019 (H1N1) (influenza A virus A/Hawaii/66/2019 (H1N1))
[4] = target: neuraminidase (N2) of influenza A virus A/Michigan/173/2020 (H3N2) (influenza A virus A/Michigan/173/2020 (H3N2))
[5] = target: neuraminidase (N2) of influenza A virus A/SouthAustralia/34/2019 (H3N2) (influenza A virus A/SouthAustralia/34/2019 (H3N2))
[6] = target: neuraminidase of influenza B virus B/Washington/02/2019 (Victoria) (influenza B virus B/Washington/02/2019 (Victoria))
[7] = target: neuraminidase of influenza B virus B/Laos/0080/2016 (Victoria) (influenza B virus B/Laos/0080/2016 (Victoria))
[8] = target: neuraminidase (N2) of influenza A virus A/HongKong/4801/2014 (H3N2) (influenza A virus A/HongKong/4801/2014 (H3N2))
[9] = target: neuraminidase (N1) of influenza A virus A/Victoria/2570/2019 (H1N1) (influenza A virus A/Victoria/2570/2019 (H1N1))
[10] = target: neuraminidase (N1) of influenza A virus A/Idaho/07/2018 (H1N1) (influenza A virus A/Idaho/07/2018 (H1N1))
[11] = target: neuraminidase of influenza B virus B/Brisbane/35/2018 (Victoria) (influenza B virus B/Brisbane/35/2018 (Victoria))
[12] = target: neuraminidase (N1) of influenza A virus A/Illinois/45/2019 (H1N1) (influenza A virus A/Illinois/45/2019 (H1N1))
[13] = target: neuraminidase (N2) of influenza A virus A/Victoria/361/2011 (H3N2) (influenza A virus A/Victoria/361/2011 (H3N2))
[14] = target: recombinant N2 NA A/Hong Kong/2671/2019 (N245 glycan) (influenza A virus H3N2 A/Hong Kong/2671/2019)
[15] = target: neuraminidase of influenza B virus B/Colorado/6/2017 (Victoria) (influenza B virus B/Colorado/6/2017 (Victoria))
[16] = target: neuraminidase (N1) of influenza A virus A/Michigan/45/2015 (H1N1) (influenza A virus A/Michigan/45/2015 (H1N1))
[17] = target: neuraminidase (N1) of influenza A virus A/Puerto Rico/1934 (H1N1) (influenza A virus A/Puerto Rico/8/34 (H1N1)) (UniProt P03468)
[18] = target: neuraminidase (N2) of influenza A virus A/Tasmania/503/2020 (H3N2) (influenza A virus A/Tasmania/503/2020 (H3N2))
[19] = target: neuraminidase (N2) of influenza A virus A/Darwin/6/2021 (H3N2) (influenza A virus A/Darwin/6/2021 (H3N2))
[20] = target: neuraminidase of influenza B virus B/Lee/1940 (Ancestral) (influenza B virus B/Lee/1940 (Ancestral)) (UniProt P03474)
Sequence of UniProt P03474 (P03474 whole entry): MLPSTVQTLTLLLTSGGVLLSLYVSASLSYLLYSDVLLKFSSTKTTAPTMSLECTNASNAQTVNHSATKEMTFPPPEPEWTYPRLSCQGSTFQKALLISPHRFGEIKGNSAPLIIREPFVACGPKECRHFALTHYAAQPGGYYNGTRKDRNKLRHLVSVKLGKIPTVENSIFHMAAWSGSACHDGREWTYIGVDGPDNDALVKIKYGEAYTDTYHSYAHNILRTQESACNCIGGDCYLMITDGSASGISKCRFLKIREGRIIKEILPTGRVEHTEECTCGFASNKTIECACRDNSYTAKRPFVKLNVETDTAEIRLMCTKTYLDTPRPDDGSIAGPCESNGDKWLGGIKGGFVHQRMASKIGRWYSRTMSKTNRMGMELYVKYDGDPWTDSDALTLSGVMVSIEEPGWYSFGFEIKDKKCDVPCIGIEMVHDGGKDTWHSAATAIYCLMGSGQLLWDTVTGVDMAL

[21] = target: neuraminidase of influenza B virus B/Utah/9/2014 (Yamagata) (influenza B virus B/Utah/9/2014 (Yamagata))
[22] = target: neuraminidase (N2) of influenza A virus A/Cambodia/E0826360/2020 (H3N2) (influenza A virus A/Cambodia/E0826360/2020 (H3N2))
[23] = target: neuraminidase of influenza B virus B/Texas/6/2011 (Yamagata) (influenza B virus B/Texas/6/2011 (Yamagata))
[24] = target: neuraminidase (N2) of influenza A virus A/Kansas/14/2017 (H3N2) (influenza A virus A/Kansas/14/2017 (H3N2))
[25] = target: recombinant N2 NA A/Hong Kong/2671/2019 (N245 glycan) (influenza A virus H3N2 A/Hong Kong/2671/2019); assay: SPR

Row | Substance | In vitro neutralization IC50; virus B/Brisbane/60/2008 (Victoria); mAb as IgG [1] [µg/mL] | In vitro neutralization IC50; virus B/Phuket/3073/2013 (Yamagata); mAb as IgG [2] [µg/mL] | In vitro neutralization IC50; virus A/Hawaii/66/2019 (H1N1); mAb as IgG [3] [µg/mL] | In vitro neutralization IC50; virus A/Michigan/173/2020 (H3N2); mAb as IgG [4] [µg/mL] | In vitro neutralization IC50; virus A/SouthAustralia/34/2019 (H3N2); mAb as IgG [5] [µg/mL] | In vitro neutralization IC50; virus B/Washington/02/2019 (Victoria); mAb as IgG [6] [µg/mL] | In vitro neutralization IC50; virus B/Laos/0080/2016 (Victoria); mAb as IgG [7] [µg/mL] | In vitro neutralization IC50; virus A/HongKong/4801/2014 (H3N2); mAb as IgG [8] [µg/mL] | In vitro neutralization IC50; virus A/Victoria/2570/2019 (H1N1); mAb as IgG [9] [µg/mL] | In vitro neutralization IC50; virus A/Idaho/07/2018 (H1N1); mAb as IgG [10] [µg/mL] | In vitro neutralization IC50; virus B/Brisbane/35/2018 (Victoria); mAb as IgG [11] [µg/mL] | In vitro neutralization IC50; virus A/Illinois/45/2019 (H1N1); mAb as IgG [12] [µg/mL] | In vitro neutralization IC50; virus A/Victoria/361/2011 (H3N2); mAb as IgG [13] [µg/mL] | In vitro neutralization IC50; virus A/HongKong/2671/2019 (H3N2); mAb as IgG [14] [µg/mL] | In vitro neutralization IC50; virus B/Colorado/6/2017 (Victoria); mAb as IgG [15] [µg/mL] | In vitro neutralization IC50; virus A/Michigan/45/2015 (H1N1); mAb as IgG [16] [µg/mL] | In vitro neutralization IC50; virus A/Puerto Rico/1934 (H1N1); mAb as IgG [17] [µg/mL] | In vitro neutralization IC50; virus A/Tasmania/503/2020 (H3N2); mAb as IgG [18] [µg/mL] | In vitro neutralization IC50; virus A/Darwin/6/2021 (H3N2); mAb as IgG [19] [µg/mL] | In vitro neutralization IC50; virus B/Utah/9/2014 (Yamagata); mAb as IgG [21] [µg/mL] | also measured
1 | FNI17 Fab | 0.191 | 0.117 | 0.018 | 33.1 | 2.98 | 0.019 | 0.018 | 0.208 | 0.036 | 0.022 | 0.024 | 0.035 | 0.175 | 5.07 | 0.042 | 0.073 | 0.011 | 5.07 | > 50 | 0.392 | In vitro neutralization IC50; virus B/Lee/1940 (Ancestral); mAb as IgG [20]: 0.071 µg/mL; In vitro neutralization IC50; virus A/Cambodia/E0826360/2020 (H3N2); mAb as IgG [22]: 24.3 µg/mL; In vitro neutralization IC50; virus B/Texas/6/2011 (Yamagata); mAb as IgG [23]: 0.062 µg/mL; In vitro neutralization IC50; virus A/Kansas/14/2017 (H3N2); mAb as IgG [24]: 0.485 µg/mL; Kd [25]: 2100 nM
2 | FNI9 Fab | 1.16 | 0.193 | 0.039 | 3.09 | 0.76 | 0.031 | 0.047 | 0.022 | 0.168 | 0.079 | 0.026 | 0.243 | 0.082 | 0.073 | 0.669 | 0.151 | 0.028 | 2.01 | 1.13 | 0.245 | In vitro neutralization IC50; virus B/Lee/1940 (Ancestral); mAb as IgG [20]: 0.051 µg/mL; In vitro neutralization IC50; virus A/Cambodia/E0826360/2020 (H3N2); mAb as IgG [22]: 1.61 µg/mL; In vitro neutralization IC50; virus B/Texas/6/2011 (Yamagata); mAb as IgG [23]: 0.104 µg/mL; In vitro neutralization IC50; virus A/Kansas/14/2017 (H3N2); mAb as IgG [24]: 0.284 µg/mL; Kd [25]: 16 nM
3 | 1G01 Fab | > 50 | > 50 | 0.306 | 6.2 | 4.4 | 5.61 | 13.5 | 0.058 | 15.1 | 0.293 | > 50 | 0.673 | 0.039 | 21.5 | 1.63 | 0.57 | 4.81 | 26.1 | > 50 | > 50 | In vitro neutralization IC50; virus A/Cambodia/E0826360/2020 (H3N2); mAb as IgG [22]: 18.6 µg/mL; In vitro neutralization IC50; virus B/Texas/6/2011 (Yamagata); mAb as IgG [23]: > 50 µg/mL; In vitro neutralization IC50; virus A/Kansas/14/2017 (H3N2); mAb as IgG [24]: 4.52 µg/mL; Kd [25]: 375 nM
4 | FNI19 Fab | 0.152 | 0.222 | 0.021 | 1.77 | 1.11 | 0.063 | 0.029 | 0.122 | 0.071 | 0.043 | 0.02 | 0.039 | 0.091 | 0.19 | 1.17 | 0.062 | 0.012 | 1.18 | 2.79 | 0.391 | In vitro neutralization IC50; virus B/Lee/1940 (Ancestral); mAb as IgG [20]: 0.211 µg/mL; In vitro neutralization IC50; virus A/Cambodia/E0826360/2020 (H3N2); mAb as IgG [22]: 1.47 µg/mL; In vitro neutralization IC50; virus B/Texas/6/2011 (Yamagata); mAb as IgG [23]: 0.229 µg/mL; In vitro neutralization IC50; virus A/Kansas/14/2017 (H3N2); mAb as IgG [24]: 0.559 µg/mL; Kd [25]: 15.1 nM
